# From US20230094597A1, “COMPOSITIONS AND METHODS FOR TREATING DISORDERS CHARACTERIZED WITH EXCESSIVE OSTEOCLAST ACTIVITY” (THE JOHNS HOPKINS UNIVERSITY, priority 2021, published 2023)
# B1: RANKL: receptor activator of NF-κappaB ligand (protein, UniProt O14788 140-317, looked up)
# Tumor necrosis factor ligand …: IRAEKAMVDGSWLDLAKRSKLEAQPFAHLTINATDIPSGSHKVSLSSWYHDRGWAKISNMTFSNGKLIVNQDGFYYLYANICFRHHETSGDLATEYLQLMVYVTKTSIKIPSSHTLMKGGSTKYWSGNSEFHFYSINVGGFFKLRSGEEISIEVSNPSLLDPDQDATYFGAFKVRDID
# B2: M-CSF: macrophage colony stimulating factor (protein, UniProt P09603 33-554, looked up)
# Macrophage colony-stimulating …: EEVSEYCSHMIGSGHLQSLQRLIDSQMETSCQITFEFVDQEQLKDPVCYLKKAFLLVQDIMEDTMRFRDNTPNAIAIVQLQELSLRLKSCFTKDYEEHDKACVRTFYETPLQLLEKVKNVFNETKNLLDKDWNIFSKNCNNSFAECSSQDVVTKPDCNCLYPKAIPSSDPASVSPHQPLAPSMAPVAGLTWEDSEGTEGSSLLPGEQPLHTVDPGSAKQRPPRSTCQSFEPPETPVVKDSTIGGSPQPRPSVGAFNPGMEDILDSAMGTNWVPEEASGEASEIPVPQGTELSPSRPGGGSMQTEPARPSNFLSASSPLPASAKGQQPADVTGTALPRVGPVRPTGQDWNHTPQKTDHPSALLRDPPEPGSPRISSLRPQGLSNPSTLSAQPQLSRSHSSGSVLPLGELEGRRSTRDRRSPAEPEGGPASEGAARPLPRFNSVPLTDTGHERQSEGSFSPQLQESVFHLLVPSVILVLLAVGGLLFYRWRRRSHQEPQRADSPLEQPEGSPLTQDDRQVELPV
# Key:
# WT BMMs = assay: In vitro osteoclast differentiation assay (TRAP staining) of BMMs; format: cell-based, mouse
# Siglec15 = Siglec15 expression in BMMs (flow cytometry, immunostaining); format: cell-based, mouse
# Protocol: To understand the detailed mechanism of Siglec15 regulating osteoclast formation, we incubated WT BMMs with biotinylated Siglec15 monoclonal antibody and manually separated Siglec15^+ BMMs from Siglec15- BMMs using anti-biotin microbeads and magnetic separators (FIG. 4A). Separated Siglec15* and Siglec15- BMMs were then stimulated with M-CSF and RANKL for osteoclastogenesis. […] One study reported that osteoclast fusion might be initiated by a small subset of progenitors (Levaot et al., 2015); therefore, we combined separated Siglec15^+ BMMs with BMMs isolated from Siglec15^ΔLysM mice in different proportions (1%, 5%, and 10%). […] Immunofluorescent staining confirmed that Siglec15^+ and Siglec15^− BMMs can form multinucleated osteoclasts with normal actin rings, and the expression of Siglec15 was restored in Siglec15^− BMMs during osteoclastogenesis (FIG. 8). […] BMMs cultured with RANKL alone, absent M-CSF, cannot survive during osteoclastogenesis (FIG. 4D, E).
# (§1) To explore the molecular mechanism of M-CSF activation of Siglec15, we used U0126, a selective of mitogen-activated protein kinase kinases inhibitor of MEK1 and MEK2. […] To understand Siglec15 transcription, we analyzed the core enhancer of Siglec15 and found three binding sites of MYC with high species […]. Chromatin immunoprecipitation (ChIP) assay was performed to investigate the interaction of MYC with the 3 deoxyribonucleic acid binding sites. […] MYC recognizes and binds to E-box domains with consensus recognition sequence of CACGTG or CATGTG (Guccione et al., 2006). In the 310-bp binding region, we recognized the sequences of TATGTG and AATGTG that share 80% similarities with reported binding bases. To confirm the role of these MYC recognition sequences, we constructed an enhancer reporter with this Siglec15 enhancer, and 3 mutants were derived by site-directed mutagenesis to inactivate the MYC recognition (FIG. 11E). […] Thus, M-CSF activates Siglec15 expression via MEK-ERK-MYC cascade.
# Mouse bone specimens were first fixed and then decalcified using 10% EDTA (Sigma-Aldrich, St. Louis, Mo., USA) for 14 days with constant shaking. For the histological assays, the detailed protocols were reported in a previous study (Dou, J. Bone Min. Res. 33, 899-908 (2018)). In short, the samples were then dehydrated and embedded in optimal cutting temperature compound (Sakura Finetek, Torrance, Calif., USA) or in paraffin. Four-μm-thick coronal-oriented femur sections were prepared for TRAP staining. Forty-μm-thick coronal-oriented femur sections were prepared for IF staining. The detailed protocols were described in a previous study study (Dou, J. Bone Min. Res. 33, 899-908 (2018)). Briefly, the sections were incubated with primary antibodies against mouse TLR2 (Santa Cruz Biotechnology, sc-21759, 1:200), Siglec15 (PA5-48221, Thermo Fisher Scientific, 1:100), ST3GAL1 (PA5-21721, Thermo Fisher Scientific, 1:50), and TRAP (Abcam, ab191406, 1:100) for 12 h at 4° C. For sialic acid detection, biotinylated Maackia Amurensis Lectin II (MAL II) (Vector Laboratories, CA, USA) was used to label the α2,3 linkage, and biotinylated Sambucus Nigra Lectin (SNA) (Vector Laboratories, CA, USA) was used to label the α2,6 linkage. Fluorescein-conjugated streptavidin (Vector Laboratories, CA, USA) was used for the addition of a fluorescent label to biotinylated sialic acid conjugates. A Zeiss LSM 780 confocal microscope and an Olympus BX51 microscope were used for image capture.
# To sort Siglec15^+ cells, whole bone marrow was collected from mouse femurs and tibias after mice were euthanized with an overdose of inhaled isoflurane. Whole bone marrow cells were also used for culture and induction of BMMs using M-CSF (50 ng mL^−1) for higher Siglec15^+ cell enrichment in further studies. After red blood cell lysis, the cell number was counted, and the same numbers of cells were incubated with a biotinylated mouse Siglec15-specific antibody (PA5-48221, Thermo Fisher Scientific). […]
# MEK-ERK-MYC signaling = assay: Western blot of ERK, MYC phosphorylation and Siglec15 in BMMs; format: cell-based, mouse
# Protocol: as §1
# (§2) For the co-IP assays, cells were first lysed in the presence of protease inhibitors using IP buffer. […] SDS-PAGE was then used to separate the immunoprecipitates before transfer to a nitrocellulose membrane for immunoblotting procedures. […]
# Siglec15 core enhancer = assay: ChIP-PCR of MYC binding at the Siglec15 core enhancer; format: cell-based, mouse; details: BMMs, stimulation for 48 h
# Protocol: For the ChIP assay, primary BMMs were cultured with M-CSF or GM-CSF stimulation for 48 h to detect Siglec15 core enhancer DNA binding. M-CSF-primed cells were induced with RANKL for another 72 h to detect St3 gal1 core enhancer DNA binding. Afterward, the cells were cross-linked using 1% formaldehyde and lysed. DNA fragmentation was then achieved by enzymatic digestion with micrococcal nuclease (MNase). After digestion, 10% of the sample was preserved as the total input aliquot for further use. The remaining supernatant was then incubated with a ChIP-grade primary antibody against mouse p-CREB (Abcam, ab32096, 10 μg), c-FOS (Abcam, ab27793, 10 μg), or c-MYC (Abcam, ab9132, 10 μg). An anti-RNA Polymerase II antibody was used as the positive IP control, and normal rabbit IgG was used as the negative IP control. […] After elution, the DNA was then purified and recovered according to the manufacturer's instructions, and PCR detection was performed. The PCR primers used to detect MYC binding were as follows: Site #1, forward: [NT] ID NO: 1), and reverse: [NT] ID NO: 2); Site #2, forward: [NT] ID NO: 3), and reverse: [NT] ID NO: 4); and Site #3, forward: [NT] ID NO: 5), and reverse: [NT] ID NO: 6). The PCR primers used to detect FOS binding were as follows: forward: [NT] ID NO: 7), and reverse: [NT] ID NO: 8). The PCR primers used to detect CREB binding were as follows: forward: [NT] […]
# St3gal1 = St3gal1 transcription under estrogen; details: FIG. 26
# TLR2 [1] = assay: ELISA of peptidoglycan-induced cytokine secretion from BMMs; format: cell-based, mouse; details: RANKL, or RANKL plus sialidase
# Text: To test signaling activity of α2,3 sialylation, we removed α2,3 SA of TLR2 induced by RANKL by adding sialidase in the BMM culture. […] To examine the transcriptional mechanism of ST3Gal1 activation by RANKL, we analyzed 5′ promoter sequence of ST3Gal1 and recognized binding sites for CREB1 and FOS (downstream transcription factors of RANKL signaling) in the core enhancer (FIG. 16E). […] To confirm the functional activity of the FOS site, we constructed an enhancer reporter with ST3Gal1 enhancer and FOS mutant binding sites. […] To validate RANKL-induced sialylation in vivo, we crossed RANKL^ﬂ/ﬂ mice with the Dmp1-Cre strain to generate osteocyte-specific RANKL knockout mice (RANKLΔ^Dmp1). […] Furthermore, the Siglec15-TLR2 co-localization that can be observed in RANKL^ﬂ/ﬂ mice disappeared in RANKL^ΔDmp1 mice (FIG. 19B).
# Siglec15-DAP12 = assay: Co-IP of Siglec15 with DAP12 and DAP12 tyrosine phosphorylation in BMMs; format: cell-based, mouse; details: BMMs induced with RANKL, sialidase or both
# Protocol: To examine whether Siglec15 downstream signaling is activated by binding to sialylated TLR2, co-IP of Siglec15 with DAP12, a key factor for cell fusion, was conducted in BMMs induced with RANKL, sialidase or both. […] Moreover, tyrosine phosphorylation of DAP12 was detected in the co-IP experiment upon RANKL induction of Siglec15 clustering but was again impaired by sialidase treatment (FIG. 28d). We then tested whether TLR2 signaling is activated by binding to Siglec15. The recruitment of MyD88 to TLR2 was examined by co-IP. […] Removal of SA by sialidase reduced MyD88 recruitment and NFATc1 activation (FIG. 28e). […] Cell-cell fusion is a fundamental cellular activity of macrophages, and multinucleation is a complex process that is likely involved in multiple signaling pathways. Activation of downstream signaling by both Siglec15 and sialylated TLR2 is involved in different cells simultaneously, and both signaling pathways could also occur in each cell, which could be the critical mechanism for cell fusion.
# as §2
# p65 = p65 nuclear translocation (immunostaining, western blot) in BMMs; format: cell-based, mouse
# TLR2 [2] = assay: Immunostaining of α2,3 and α2,6 sialic acid in WT BMMs; format: cell-based, mouse
# Protocol: Because TLR2 has 4 N-linked glycosylation sites (Weber et al., 2004), to investigate the molecular mechanism of sialylation we tested α2,3 and α2,6 N-Linked SA modification, the two most common sialylation pattern in mammalian cells. […] To understand why α2,3 was sialylated, we examined each member expression profile of the entire sialyltransferase family. […] Moreover, α2,3 SA was immunocolocalized with TLR2, not with Siglec15 in WT and Siglec15^ΔLysM BMMs after RANKL stimulation for 24 h (FIGS. 16C, D).
# Mouse bone specimens were first fixed and then decalcified using 10% EDTA (Sigma-Aldrich, St. Louis, Mo., USA) for 14 days with constant shaking. For the histological assays, the detailed protocols were reported in a previous study (Dou, J. Bone Min. Res. 33, 899-908 (2018)). In short, the samples were then dehydrated and embedded in optimal cutting temperature compound (Sakura Finetek, Torrance, Calif., USA) or in paraffin. Four-μm-thick coronal-oriented femur sections were prepared for TRAP staining. Forty-μm-thick coronal-oriented femur sections were prepared for IF staining. The detailed protocols were described in a previous study study (Dou, J. Bone Min. Res. 33, 899-908 (2018)). […]
molecule,measurement,setting,value
"N#CC(=C(/N)Sc1ccccc1N)/C(C#N)=C(\N)Sc1ccccc1N [U0126, reference compound]",cell survival rate,"WT BMMs; WT BMMs, U0126 10 μmol·L^-1",decreases
same,osteoclastogenesis,"WT BMMs; WT BMMs, U0126 10 μmol·L^-1",decreases
same,Siglec15 upregulated by M-CSF,"Siglec15; BMMs, M-CSF+U0126, immunostaining",abrogated
same,M-CSF-ERK-MYC-Siglec15 cascade,"MEK-ERK-MYC signaling; M-CSF+U0126, 0-72 h",blocked this cascade
"GM-CSF: granulocyte-macrophage CSF, encoded by CSF2",osteoclastogenesis,WT BMMs; BMMs induced with RANKL+GM-CSF,cannot induce
same,expression of Siglec15,"Siglec15; BMMs treated with GM-CSF, immunostaining",cannot induce
same,binding of MYC with the core enhancer of Siglec15,Siglec15 core enhancer,cannot induce
estrogen,RANKL-activated St3gal1 transcription,St3gal1,inhibits
B1,peptidoglycan-induced secretion of IL-6,TLR2 [1],inhibited
same,peptidoglycan-induced secretion of TNF-α,TLR2 [1],inhibited
same,association of Siglec15 with DAP12,Siglec15-DAP12,induced the association of Siglec15 with DAP12
same,p65 nuclear translocation,p65,activated
same,"α2,3 sialylation of TLR2",TLR2 [2],robustly induced
B2,Siglec15 expression in separated Siglec15- BMMs,"Siglec15; FCM, after 3 days of stimulation",restored Siglec15 expression
same,proportion of Siglec15+ BMMs,"Siglec15; flow cytometry, Siglec15 ΔLysM mice, M-CSF 3 days",no obvious changes
same,proportion of Siglec15+ BMMs,"Siglec15; flow cytometry, whole bone-marrow cells of Siglec15 fl/fl mice, M-CSF 3 days",significantly increased
same,proportion of Siglec15+ BMMs,"Siglec15; immunofluorescent staining, Siglec15 fl/fl mice",significantly increased
same,MYC phosphorylation via ERK activation,MEK-ERK-MYC signaling; western blot,phosphorylated the Ser62 of MYC
